Measurements as given in the nanobody polyreactivity screen of Harvey et al. (2022).

assay: yeast display, Sf9 membrane polyspecificity reagent, FACS + sequencing; frameworks hold sequencing errors
In short: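 Polyreactivity labels are assigned by the sorting gate from which each nanobody was recovered. The gates were low and high (top ~1%), set on anti-HA fluorescence for expression and streptavidin fluorescence for reagent binding. Before sorting, galactose-induced (36–48 hours) yeast display cells were stained for 1 hour at 4 °C with 10% biotinylated, detergent-solubilized Sf9 membrane reagent.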

Row | Sequence | polyreactivity (PSR sort gate)
1 | QVLLQESGGLVQAGCSLRMSCAESGSISTALSMGWYRQAPGKERELVATISDGASTNYADSVKGRFTISRVNAKNTLYLQMNSLKPEDTEVYYCAAQSQYRPDHRYWGQGTKVTVSS | high polyreactivity
2 | QVLLVESGGGLVHAGGSLRVSCASSGFTFKENAMGWYRQAPGKERELVAAISSTGGSTYYADSVKGRFTISRDNAKNTVFLLMNSLKPEDTAVYYCAASTYWYDGDYWGQGTQVTVSS | high polyreactivity
3 | QVLLVESGGGLVQAGGSLRLSCAASGIIFYRNAMGWYRQAPGKERELVAVITASGGHTYYADSVKGRFTISRDNAKNTVYLQMNSLKPEDTAVYYCNRELTSPRRWHVSRADDYWGQGTQVTVSS | low polyreactivity
4 | QVLLVESGGGLVQAGGSLRLSCAASGISIRAKAMGGYRQAPGKVRELVAAITWSGGDPYYADSVKGRFTISRDNAKNTVYLQMNSLKPEDTAVYYCNALQPGLGSPLGEYDYWGQGTQVTVSS | low polyreactivity
5 | QVLLVESGGGLVQAGGSLRLSCAASGITFGRNTMGWYRQAPGKDRELVAAIDSGGNTYADSVKGRFTISRDNAKNTVSLQMNSRKPEDTAVDYCAVDGGEFSSYGYWGQGTQVTVSS | low polyreactivity
6 | QVLLVESGGGLVQAGGSLRLSCAASGLTFVYVMGWYRQAPGKERELVAGISYSAGRTYYADSVKGRFTISRDNAKNTVYLQMNSLKPEDTAVYYCAATKRGRPQRGYWGQGTQVTVSS | high polyreactivity
7 | QVLLVESGGGLVQAGGSLRLSCAASGYNFFTKAMGWYRQAQGKERELVAAISKSGGRTYYADSVKGRFTISRDNAKNTVYLQMNSLTPEDTAVYYCAARSETSYYPSRYDYWGQGTQVTVSS | high polyreactivity
8 | QVLLVESGGGLVQAGGSLRLSCAAWSIFYLNAMGWYRQAPGKERELVAAISSAGSTYYADSVKVRFTISRDNAKNTVYLQMNSLKPEDTAVYYCAAYWYDSPGVTEIWYDYWGQGTQVTVSS | low polyreactivity
9 | QVLLVESGGGLVQAGGSLRLSCAAYGRTFYGYAMGWYRQAPGKERELVATISSGDSTNYADSVKGRFTISRDNAKNTVYLQMNSLKPEDTAVYYCAAQGGDGVLALYYYWGQGTQVTVSS | low polyreactivity
10 | QVLLVESGGGLVQAGGSLRLSSAASGSIFNRYAMGWYRQAPGKDSEFVAAITYSGGSTYYADSVKGRFTISRDNAKNNVYLQMIRVKPEDTAVYYCAKAYYPKGRYGFDYWGQGTQVTVSS | high polyreactivity
11 | QVLLVESGGGLVQAGGSVRLICAASGSIFKKYALGWYRPATGEERELVAAISWRGGRTYYADSVTGRFTISRDNAKNTVFLQMNSLKPEDTAVYYCAKERYVSYRGGPWVDYWGQGTQVTVSS | high polyreactivity
12 | QVLLVESRGALVQAGGSLRLSCAASGSTFYWYAMGRYRQAPGKERELVASITRSGVRTYYADSVKGRFTISRDNGKNTVYLQMNSLKPEDTAVYYCAAERYYFPRSFRYGYWGQGTQVTVSS | low polyreactivity
13 | QVLLVESRGGLVQAGGSLRLSCAASGSIFFYYAMGWYRQAPGKETELVASISWSGGSTYYADSVKGRFTISRDNAKNTVYLQMNSLKPEDTAVYFCAKVTITFSWETLYDYWGQGTQVTVSS | low polyreactivity
14 | QVNLVESGGGLVQAGGSLRLSCAAYGRTFRTNAMRCNRQEPGKERELFAAITYSGDSTYYADSVKGRFTISRDNEKNTVYLQMNSLKPEDTAVYYCNARLLSGPGYDYWRQGTQVTVSS | low polyreactivity
15 | QVPLVDSGGGLVQAGGSVRLSCAASGSIFYVYALGWYRQAPGTERELVAAINPSGGSTYADSVKGRFTISRDNAKISVYLQMYSLKTEDNAVSYCAAEPEWWWRGYGYWGQGKQVTVSS | low polyreactivity
16 | QVPLVEAGGGLVQAGGSLRVSCAASGITFQLYGMGWYSQAPGKERELVAAITGSDGITYYADSVKGRFTISLDNAKNTVYLPMNSLKPEDTAVYYCAAEWWDYWNEYDYWGQGTQVTVSS | high polyreactivity
17 | QVPLVESGGGLVQAGGILRISCAATGSSFRFKAMGWYRQAPGQERELVAAISRRGSSTYYADSVKGRCTISRDNAKNRVYLQMNSLKAEDTAVYYCAASGGYRPHRYQIGDYDNWGQGTQVTLSS | high polyreactivity
18 | QVPLVESGGGLVQAGGSLRISCAASFRYNTMGWYRQAPGKERELVAAISGSGSRTYYADSVKGRFTISRDNAKITVYLQMNSLKPEDTAVFYCAALSYRNSEVGTSRGDYWGQGTQVTVSS | high polyreactivity
19 | QVPLVESGGGLVQAGGSLRLSCAASGGIFGRYAMGWYRQAPGKERELVAALSARGGSSYYADSVKGRFTISRDNAKNTVYFQMNSLKPEDTAVYYCNALWVSYYTFRMDYWGQGTQVTVSS | high polyreactivity
20 | QVPLVESGGGLVQAGGSLRLSCAASGITIRGYAMGWYRQAPGKDRELVAAINTRTSTYYADSVKGRFTISRDNAKHTVYLQMNSLKPEDTAVYYCNRDPVYYDYDYWGQGTQVTVSS | low polyreactivity
21 | QVPLVESGGGLVQAGGSLRLSCAASGRIFKSNAMGWYRQAPGKERELVAAISYSGGSTYYADSVKGRFTISRDNAKKTVYLQMNRLKPEDTAVYYCNKYFRREYDYWGQGTQVTVSS | high polyreactivity
22 | QVPLVESGGGLVQAGGSLRLSCAASGRSFTSNAMGWYRQAPGKEREFVAAITIRGGSTYYADSVKGRFTISRDNATNTVYLQMHSLKPEDTALYYCAVGRRKTWGDYWGQGTQVTVSS | high polyreactivity

Row | Sequence | polyreactivity (PSR sort gate)
23 | QVPLVESGGGLVQAGGSLRLSCAASGSIFNIYALGWYRPAPGKVWELVAGISWDSGSTFYADSVKGRVTISRDNAKNTVYLQMNSLKPEDTAGYYCNVVYETYCDEFDYWGQGTQVTVSS | high polyreactivity
24 | QVPLVESGGGLVQAGGSLRLSCSASGIIFNAYTMGWYRQAPGKESELVAAITTAGSTHYADSVKGRFTISRDNAKNTVYLQMNSLKPEDTAVYYCNADTPVGKYAHLACYQDYDDWGQGTQVTVSS | low polyreactivity
25 | QVPLVESGGGLVQAGGSLSLTCAASGRNLKYYDMGWYRQAPGKERELVAAISVSGTSTYYADSVKGRFTISRDNAKNTVYLQMNSLKPEDTAVYYCATATGRYSFDYWGQGTQVTLSS | low polyreactivity
26 | QVPLVESVGGLVQAGGSLRLSCAASGLTFWRYAMGWYRQAPGKEREFVAAISSGGSTNYADSVKGRFTISRDNAKNTVYLQMNSLKPEDTAVYYCNARYYHKRSTRVIFPYDYWGQGTQVTVSS | high polyreactivity
27 | QVPLVESVGGLVQAGGSLRLSCAASGSTFLSNAMGWYRQAPGKERELVASINWIGGSTRYADSVKGRFTISRDNAKNTVYLQMNSLKPEDTAVYYCASRRRWGGHGAFLYYYWGQGTQVTVSS | high polyreactivity
28 | QVQHEESGGGLDQAGGSLRLSSASSGTIFYGCYMGWYRQARGKEREMVATISWSSGSSTYYADSVKGRFTISRDNANNSVYLQMNILKPEDTAVYYCAVDFAIGYRYLCRVDYWGQGTQVTVSS | low polyreactivity
29 | QVQHEESGGGLVQAGASLRLSCAPSGRILLYNAMGCYRQAPGKERELVAAISSTGGRTYYADSVKGRFTISRDNAKNTFYLQMNSLKPEDTAVYYCAADYYWSLHQRMDYWGQGTQVTVSS | high polyreactivity
30 | QVQHEESGGGLVQAGGSLRLSCAASGFTFFSNAMGWFRQAPGKERELVAAITTNGGSTYYADSVKGRFTISRDNAKNTVYLQMYSLKPEDTAGYYCAAEYGITDYDYWGQGTQVTVSS | low polyreactivity
31 | QVQHEESGGGLVQAGGSLRLSCAASGLTFYPYAMGWYRQATGKESELVAGISASGGGTSYADSVKGRFTISRDNAKNTVYLQMNSLKPEDTAVYYCAATPTFFVWQGYNYWGQGTQVTVSS | low polyreactivity
32 | QVQHEESRRGLVQAGVSLRLRCAASGYTFRVYLMGCYRQAPGKERELVAAITYSGGRTYYADSVKGRFTISRDNAKNTVYLQMNSLKPVDTAVYYCAAERPWYGRDRGFDYWGQGTQVTVSS | high polyreactivity
33 | QVQHGESGGGLVQAGGSLRLSCAASGTTLAAYTMGWYRQAPGKERELVAAINSGGGTNYADSVKGRFTISRDNAKNTVYLQMNSLKPEDTAVYYCAKVVFVRGAPGYYWGQGTQVTVSS | high polyreactivity
34 | QVQHLESGGGLVQAGGSLRLSCAASAITFDHYAMGWYRQAPGKEREFVAAIDDIGGDTYYPDSVKGRFTSSRDNAKNNVYLQMNSVQPEDTAVYDCNADGEGADSDYEYWGQGNQVTVSS | low polyreactivity
35 | QVQHLETGGGLDQAGGSLRLSCAASVRTFGANAMAWYRQAPGNERALVAAITGRGGSTYYADSVKGRFTFSRDNAKNTVYLQMNSLKPEDTAVYYCAKPFKRGYGYDYWGQGTQVTVSS | low polyreactivity
36 | QVQHVDSGGGLVQAGGSLLLSCAASGFTFRTYAMGWYRQAPGKEREFVAAITTSGGSTYYADSVKGRFTISRDNAKNTVYLQMNSLKPEDTAVYYCAAKKATVVYRMEYWGQGTLVTVSS | high polyreactivity
37 | QVQHVDSGGGLVQAGGSLRLSCAASGSSFGTYDMGWYRQAPGKERELVARISGGGSTYYADSVKGRLTISRDNAKNTVYFQMNRLKPEDTAVYYCNVRKWAYWSHAFIYTYWGQGTQVTVSS | high polyreactivity
38 | QVQHVDSGGGLVQAGGSLRLSCSASGINFPWYAMGWYRQAPGKERELVAAITSGGSTYYADSVKGRFTISRDNAKNTVYLEMYSLKPEDTAVYYCNADYYSWYLGAYLYDYWGQGTQVTVSS | high polyreactivity
39 | QVQHVDTGGGLVQAGGSLRLSCAASGSIFGRYAMGWSRQAPGKERELVASINWNSGSTYYADSVKGRFTISRDNAKYTVYLQMNSLKPEDTAVYYCAAAALGYYGYRGFDYWGQGTQVTVSS | low polyreactivity
40 | QVQHVESAGGLVQAGGSLRLSCAASGGIFWVYAMGWSRQAPGTERELVAAISNSDTSTSYADSVKGRFTISRDNAKNTVYLQMNSLKPEDTAVYYCNAVSPSLSGDYWGQGTQVTVSS | low polyreactivity
41 | QVQHVESAGGLVQAGGSLRLSCAASGRIFYVNAMGWYRPAPGKERQLVAAIRSAVGTYYADSVKGRFTISRDNAKNTVYLQMNSLKPEDTAVYYCNADASFREYRFYLIEMDYWGQGTKVTVSS | high polyreactivity
42 | QVQHVESAGGLVQAGGSLRLSCAASGSTFSDYAMGRYRQAPGKERELVAAISRSGGSTYYADSVKGRFTISRDNAKNTVYLQMNSLKPEDTAVYYCAASRATLLRYGYWGQGTQVTVSS | low polyreactivity
43 | QVQHVESCGGLDQAGGSLRLSCAASGRTFKYYTMGWYRQAPGKQREFVAAISTGGSTHYADSVKGRFTISRDNAKNTVYLQMNSLKPEVTAVSYCAAGCVLWVRDPQGRASYYWGQGTHVTVSS | high polyreactivity
